{
  "source": "paper PMC7416497",
  "target": "T1, ETS1 ΔN279 (UniProt P14921 279-441)",
  "T1 sequence": "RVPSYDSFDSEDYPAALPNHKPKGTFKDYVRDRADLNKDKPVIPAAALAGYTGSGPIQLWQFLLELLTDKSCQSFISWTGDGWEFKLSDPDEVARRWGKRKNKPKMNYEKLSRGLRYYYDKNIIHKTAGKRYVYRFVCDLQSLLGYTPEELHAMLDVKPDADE",
  "test": "EMSA",
  "data": [
    {"binder": "SC1 (dsDNA) DNA 1: TCGACGGCCAAGCCGGAAGTGAGTGCC DNA 2: TCGAGGCACTCACTTCCGGCTTGGCCG", "values": [
      {"measurement": "Kd", "value": 0.4, "unit": "nM"}
    ]}
  ]
}
